{"source": "patent US20130196320A1", "about": "“METHOD FOR IMPROVING CLEAVAGE OF DNA BY ENDONUCLEASE SENSITIVE TO METHYLATION” (CELLECTIS, priority 2010, published 2013)", "key": {"[1]": {"tested_on": "ADCY9 endogenous locus in 293H cells", "assay": "Meganuclease-induced gene targeting assay, ADCY9 locus", "type": "cell-based, human", "conditions": "for targeted events, % of the transfected cells: ADCY9 meganuclease + repair matrix, n=2", "description": "FIG. 14: ADCY9 meganuclease efficiency is impaired by DNA methylation in vivo. 293H cells were co-transfected with 5 μg of […] meganuclease expressing vector or empty vector and 2 μg of DNA repair matrix vector in presence or absence of DNA methylation inhibitor (5-aza-2′deoxycytidine). 480 individual cellular clones were analyzed in each condition for the presence of targeted events using specific PCR amplification.\nCell culture as well as general transfection conditions were described in Example 4. For this assay, 293H cells were co-transfected with 5 μg of ADCY9 meganuclease expressing vector and 2 μg of DNA repair matrix. The DNA repair matrix consists of a left and right arms corresponding to isogenic sequences of 1 kb located on both sides of the meganuclease recognition site. These two homology arms are separated by a heterologous fragment of 29 bp (sequence: […], SEQ ID NO: 64). Two days post-transfection, cells were replated in 10 cm dish. Two weeks later, individual clones were picked and subsequently amplified in 96 wells plate for 3 days. 480 individual cellular clones were then analyzed per condition. DNA extraction was performed with the ZR-96 genomic DNA kit (Zymo research) according to the supplier's protocol. The detection of targeted DNA matrix integrations was performed by specific PCR amplification using the primers ADCY9_F4: 5′-[…]-3′ (specific to the 29 bp of heterologous sequence) (SEQ ID NO: 50) and ADCY9_R4: 5′-[…]-3′ (specific to a genomic sequence located outside of the homology arm) (SEQ ID NO: 51)."}, "[2]": {"tested_on": "XPC4 target locus in 293H cells", "assay": "Meganuclease-induced mutagenesis at XPC4 target locus by deep sequencing, 5-aza-2-deoxycytidine treatment", "type": "cell-based, human", "description": "FIG. 10: Frequencies of mutagenesis events measured by deep sequencing. Cells were pre-treated with 5-aza-2-deoxycytidine at 0.2 μM or 1 μM 48 hours before transfection with XPC4 meganuclease or empty vector. The treatment was maintained 48 hours post-transfection. Two days post-transfection, the genomic DNA was extracted and a PCR with primers surrounding target site was performed. The results were expressed as a percentage of PCR fragments containing a mutation.\nThe human 293H cells (ATCC) were plated at a density of 1.2×10^6 cells per 10 cm dish in complete medium (DMEM supplemented with 2 mM L-glutamine, penicillin (100 IU/ml), streptomycin (100 μg/ml), amphotericin B (Fongizone: 0.25 μg/ml, Invitrogen-Life Science) and 10% FBS) supplemented with 5-aza-deoxycytidine. The next day, cells were transfected with 3 μg of meganuclease expression vector in the presence of 5-aza-deoxycytidine and Lipofectamine 2000 transfection reagent (Invitrogen) according to the manufacturer's protocol.\nCells were pre-treated with 5-aza-deoxycytidine at 0.2 μM or 1 μM 48 hours before transfection and the treatment was maintained 48 hours post-transfection. As a control, cells not treated with 5-aza-2-deoxycytidine (NT) were used. Extraction of genomic DNA was performed 48 hours after transfection.\nAfter genomic DNA extraction, the XPC4 target locus was amplified with specific primers flanked by specific adaptator needed for HTS sequencing on the 454 sequencing system (454 Life Sciences)\n5000 to 10 000 sequences per sample were analyzed."}, "[3]": {"target": "random target (stretch of 12 GA repeats)", "assay": "In vitro binding assay with random target", "description": "Fluorescein labeled C1234 oligonucleotides were synthesized and HPLC-purified by Eurogentec. To prepare C 1234 duplex corresponding to I-Cre I double strand DNA wild type target, C1234 forward (SEQ ID NO: 31, “a” strand below) labeled with Fluorescein on its 5′ end was mixed with 1 equivalent of C1234_reverse (SEQ ID NO: 32, “b” strand below) in 100 mM Tris-HCl, 50 mM EDTA, 150 mM NaCl, pH8. The mixture was heated to 95° C. for 2 min and then cooled down to 25° C. over 1 hour. C1234 duplex was eventually purified by anion exchange chromatography using a miniQ PE column (GE healthcare) pre-equilibrated with buffer A (20 mM Tris-HCl, pH7.4). Single stranded oligonucleotides and other contaminants were first discarded using a 0 to 360 mM NaCl step gradient and elution of pure C1234 duplex was performed with a 360-1000 mM NaCl linear gradient (5 column volumes). C 1234 duplex and fluorescein final concentrations were assessed by spectrophotometry using their respective extinction coefficients ε260nm=62900 M^−1 cm^−1 and ε495nm=83000 M^−1 cm^−1. As expected, a ratio [C1234 duplex]/[fluorescein]˜1 was obtained. […] After 30 minutes incubation, the fluorescence anisotropy of the mixture was recorded with a Pherastar Plus (BMG Labtech) operating in fluorescence polarization end point mode with excitation and emission wavelengths set to 495 and 520 nm respectively. Apparent dissociation constants were determined by fitting raw data by an hyperbolic function (Ax=(A∞*[Meganuclease])/(Kd+[Meganuclease]) with Ax, the fluorescence anisotropy value obtained at a given meganuclease concentration, A∞, the fluorescence anisotropy value obtained at saturating concentration of meganuclease and Kd the dissociation constant of the equilibrium studied)."}, "[4]": {"tested_on": "random target (stretch of 12 GA repeats)", "assay": "In vitro single turn over cleavage assay with random target", "type": "biochemical"}}, "data": [{"molecule": "Nc1ncn([C@H]2C[C@H](O)[C@@H](CO)O2)c(=O)n1", "note": "[5-aza-2′deoxycytidine, reference compound]", "values": [{"measurement": "targeted events", "setting": "[1]; absence of meganuclease, with 5-aza-2′deoxycytidine treatment", "value": "no targeted events could be detected"}, {"measurement": "mutagenesis", "setting": "[2]; empty vector, 1 μM of 5-aza-2′deoxycytidine", "value": "low or absent"}]}, {"molecule": "ADCY9: engineered meganuclease (SEQ ID NO: 3) designed to cleave adenylate cyclase 9 gene (protein) MANTKYNEEFLLYLAGFVDGDGSIIAQIKPNQSYKFKHQLSLTFRVTQKTQRRWFLDKLVDEIGVGYVRDSGSVSNYDLSEIKPLHNFLTQLQPFLELKQKQANLVLKIIEQLPSAKESPDKFLEVCTWVDQVAALNDSKTRKTTSETVRAVLDSLSEKKKSSPAAGGSDKYNQALSKYNQALSKYNQALSGGGGSNKKFLLYLAGFVDSDGSIIAQIKPDQSYKFKHQLGLTFQVTQKTQRRWFLDKLVDRIGVGYVRDRGSVSDYILSEIKPLHNFLTQLQPFLKLKQKQANLVLKIIEQLPSAKESPDKFLEVCTWVDQVAALNDSKTRKTTSETVRAVLDSLSEKKKSSP", "values": [{"measurement": "Kd", "setting": "[3]", "value": "> 1", "unit": "µM"}, {"measurement": "kcat", "setting": "[4]", "value": "<1.7e-06", "unit": "s⁻¹"}, {"measurement": "targeted events, % of the transfected cells", "setting": "[1]; 5-aza-2′deoxycytidine (0.2 μM)", "value": "3.37%±0.66"}, {"measurement": "targeted events, % of the transfected cells", "setting": "[1]; absence of 5-aza-2′deoxycytidine", "value": "0.70%±0.14"}, {"measurement": "increase of targeted event frequency", "setting": "[1]; with 5-aza-2′deoxycytidine (0.2 μM) vs without", "value": 4.8, "unit": "fold"}]}, {"molecule": "I-CreI: wild-type I-CreI meganuclease (… homing endonuclease), SEQ ID NO: 1, recombinant Cterm His-tag (protein, listed as Chlamydomonas reinhardtii, C-terminal His-tag) MNTKYNKEFLLYLAGFVDGDGSIIAQIKPNQSYKFKHQLSLTFQVTQKTQRRWFLDKLVDEIGVGYVRDRGSVSDYILSEIKPLHNFLTQLQPFLKLKQKQANLVLKIIEQLPSAKESPDKFLEVCTWVDQIAALNDSKTRKTTSETVRAVLDSLSEKKKSSP", "values": [{"measurement": "Kd", "setting": "[3]", "value": "> 1", "unit": "µM"}, {"measurement": "kcat", "setting": "[4]", "value": "<1.7e-06", "unit": "s⁻¹"}]}, {"molecule": "XPC4: engineered meganuclease (SEQ ID NO: 2) designed to cleave xeroderma pigmentosum group C gene (XPC) (protein) MANTKYNEEFLLYLAGFVDGDGSIIAQIKPNQSHKFKHALQLTFKVTQKTQRRWFLDKLVDEIGVGYVQDSGSVSNYILSEIKPLHNFLTQLQPFLELKQKQANLALKIIEQLPSAKESPDKFLEVCTWVDQVAALNDSKTRKTTSETVRAVLDSLSEKKKSSPAAGGSDKYNQALSKYNQALSKYNQALSGGGGSNKKFLLYLAGFVDSDGSIIAQIKPNQSHKFKHQLSLAFQVTQKTQRRWFLDKLVDRIGVGYVRDRGSVSDYILSKIKPLHNFLTQLQPFLKLKQKQANLVLKIIEQLPSAKESPDKFLEVCTWVDQVAALNDSKTRKTTSETVRAVLDSLSEKKKSSP", "values": [{"measurement": "Kd", "setting": "[3]", "value": "> 1", "unit": "µM"}, {"measurement": "kcat", "setting": "[4]", "value": "<1.7e-06", "unit": "s⁻¹"}, {"measurement": "PCR fragments carrying a mutation", "setting": "[2]; XPC4 meganuclease, absence of 5-aza-2′deoxycytidine", "value": "0.2-0.5%"}, {"measurement": "mutations", "setting": "[2]; XPC4 meganuclease, samples treated with 5-aza-2′deoxycytidine", "value": "up to 7.6%"}]}]}
